Results: patent CN114195896A (AQUILARIA SINENSIS QINGSU BIOTECHNOLOGY CO LTD, dated 2022)

B1: 16-B7重组抗体 (16-B7 recombinant antibody, VHH fused to hIgG1 Fc) (Fc fusion)
chain: QARFVESGGGLVQSGGSLVLSCTVSDVTLDDYVTAWFRQAPGKEREGVSCISKRNFTSYVDSVKGRFTTSRDITKNTVLLQMNALTPEDTGVYYCATPILPSLAFGEVCSLQTEFRSWGPGTRVTVSS
notes: also called 16-B7纯化重组抗体; 原始序列16-B7; not shown: human IgG1 Fc from the expression vector pcDNA3.1-hIgG1-Fc2
B2: 商业化BCMA抗原蛋白 (ACRO BIOSYSTEMS, 货号BCA-H522y-1mg) (receptor, UniProt Q02223 1-54, looked up)
chain: MLQMAGQCSQNEYFDSLLHACIPCQLRCSSNTPPLTCQRYCNASVTNSVKGTNA
notes: also called 目标抗原BCMA; 靶蛋白BCMA

Columns and labels:
[1] = target: BCMA expressed on recombinant cells (CHO-BCMA; Nalm6-BCMA-LUC) (UniProt Q02223); experiment: flow cytometry on CHO-BCMA cells, purified antibody at 10, 2, 0.4 and 0.08 μg/mL
[2] = target: B2; experiment: SPR, BCMA immobilised on the chip, recombinant antibody as the mobile phase
[3] = target: T1, 16-B7-HM4人源化重组抗体 (humanised 16-B7-HM4 recombinant antibody, VHH fused to hIgG1 Fc) (human, UniProt P01857-1 99-330 = IgG part, limits assumed); experiment: as above
T1 construct: domain: Fc; also called 人源化重组抗体16-B7-HM4
T1 sequence (P01857 other isoform, or with tags, fused parts or gaps limits assumed): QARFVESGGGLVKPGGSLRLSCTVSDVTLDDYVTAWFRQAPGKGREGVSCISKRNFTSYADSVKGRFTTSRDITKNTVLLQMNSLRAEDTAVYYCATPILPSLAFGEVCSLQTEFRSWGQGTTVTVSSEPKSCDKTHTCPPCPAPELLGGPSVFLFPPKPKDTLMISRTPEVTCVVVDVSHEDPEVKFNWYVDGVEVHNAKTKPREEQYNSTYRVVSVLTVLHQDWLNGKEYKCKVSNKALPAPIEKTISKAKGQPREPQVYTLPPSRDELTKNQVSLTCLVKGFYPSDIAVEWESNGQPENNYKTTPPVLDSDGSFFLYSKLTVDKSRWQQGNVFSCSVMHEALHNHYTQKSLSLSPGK

antibody concentration at saturation [1] | Kd [2] | Kd [3] | Binder
2 µg/mL | 3.73 nM |  | B1
 |  | 1.06 nM | B2
